{
  "source": "patent US8609353B2",
  "about": "“Diagnostics and methods for removal and detection of interferents” (Systagenix Wound Management (US), Inc., priority 2007, dated 2013)",
  "molecules": {"B1": {"name": "human neutrophil elastase (protein)", "chain": "IVGGRRARPHAWPFMVSLQLRGGHFCGATLIAPNFVMSAAHCVANVNVRAVRVVLGAHNLSRREPTRQVFAVQRIFENGYDPVNLLNDIVILQLNGSATINANVQVAQLPAQGRRLGNGVQCLAMGWGLLGRNRGIASVLQELNVTVVTSLCRRSNVCTLVRGRQAGVCFGDSGSPLVCNGLIHGIASFVRGGCASGLYPDAFAPVAQFVNWIDSIIQ"}, "B2": {"name": "papain (in ACCUZYME, a papain-containing debriding ointment, DPT Laboratories) (protein)", "chain": "IPEYVDWRQKGAVTPVKNQGSCGSCWAFSAVVTIEGIIKIRTGNLNEYSEQELLDCDRRSYGCNGGYPWSALQLVAQYGIHYRNTYPYEGVQRYCRSREKGPYAAKTDGVRQVQPYNEGALLYSIANQPVSVVLEAAGKDFQLYRGGIFVGPCGNKVDHAVAAVGYGPNYILIKNSWGTGWGENGYIRIKRGTGNSYGVCGLYTSSFYPVKN"}},
  "key": {"[1]": {"target": "T1, human neutrophil elastase (Homo sapiens, UniProt P08246)", "T1 sequence (P08246 30-267)": "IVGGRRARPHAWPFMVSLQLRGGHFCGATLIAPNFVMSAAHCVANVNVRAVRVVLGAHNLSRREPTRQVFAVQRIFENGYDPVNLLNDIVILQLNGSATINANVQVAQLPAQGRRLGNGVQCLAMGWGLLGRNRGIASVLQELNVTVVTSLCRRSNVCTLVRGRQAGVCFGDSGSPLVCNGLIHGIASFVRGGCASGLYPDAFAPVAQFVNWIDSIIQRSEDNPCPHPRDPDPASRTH", "assay": "FRET protease assay of bacterial peptide substrates with human neutrophil elastase (cross-reactivity)", "type": "biochemical", "procedure": "Based on the concentration of elastase from human wound fluid, it was determined whether this amount of elastase (0-50 μg/ml) would cause false positives in a protease assay using fluorescence resonance energy transfer (FRET) with peptides that are specific substrates for bacteria (FIGS. 3A-3C). Broad spectrum pathogen peptides such as CPI2 (peptide sequence EGAMFLEAIPMSIPK (referred to herein as SEQ ID NO: 3)) (that reacts with Staphylococcus aureus, Proteus mirabilis, Pseudomonas aeruginosa, Enterococcus faecalis, and Streptococcus pyogenes) were studied. Specific peptides for Pseudomonas aeruginosa (E8 (peptide sequence […] (referred to herein as SEQ ID NO: 4)) and G6 (peptide sequence EAAHQSALQSAK (referred to herein as SEQ ID NO: 5))), Staphylococcus aureus (SAP2 (peptide sequence […] (referred to herein as SEQ ID NO: 6)), Escherichia coli (T2 (peptide sequence EVSRRRRRGGK (referred to herein as SEQ ID NO: 7)) and T3 (peptide sequence KKASEVSRRRRRGGK (referred to herein as SEQ ID NO: 8)) were also studied. The […] were tested with three concentrations of human neutrophil elastase. The peptide substrates were tested in the FRET format with the fluorescent dye Edans attached to one end of the peptide and the quencher Dabcyl attached to the other end of the peptide. In this FRET assay format, amino acids are added to the terminals of the peptides to introduce the FRET assay dye. For example, an “E” is added to the N terminal and a “K” is added to the C terminal. For example, the “E” can be (E-EDANS) and the “K” can be (K-Dabcyl). Cleavage of the peptide substrate by human neutrophil elastase will produce a fluorescent signal."}, "bacterial proteases": {"tested_on": "bacterial proteases", "assay": "HE1 specificity versus bacterial proteases", "type": "biochemical", "procedure": "(§1) Specificity was tested with 20 μl of a 1:10 dilution of the Affigel beads reacted with 100 μl media control or overnight grown culture of Pseudomonas aeruginosa, Streplococcus pyogenes, Escherichia coli, and Enterococcus faecalis in 200 μl total volume, as described above. The samples were spun down and a 20 μl aliquot measured in 500 μl total volume ABTS over 5 minutes."}, "elastase": {"target": "T2, elastase (Homo sapiens, UniProt P08246)", "T2 sequence (P08246 30-267)": "T1 sequence (P08246 30-267)", "assay": "HE1-Affigel bead HRP release spin through assay with elastase", "type": "biochemical", "settings": "5 μg/ml elastase, 5 minutes; ABTS substrate over 5 minutes", "procedure": "The peptide was tested for activity by conjugating one end to Affigel 10 beads (BioRad) and the other end to HRP reporter enzyme. The sequence of the HE1 peptide used for this assay was H2N-PFPQANYITYC-OH) (SEQ ID NO: 9). The activity was measured by detecting the release of HRP from the beads in a spin through assay. Testing was performed with 20 μl of a 1:10 dilution of HE1-Affigel beads reacted with 5 μg/ml elastase in 200 μl total volume for 5 minutes."}, "Pseudomonas aeruginosa": {"tested_on": "Pseudomonas aeruginosa", "assay": "HE1-Affigel bead HRP release specificity test with overnight grown culture", "type": "biochemical", "settings": "100 μl overnight grown culture; ABTS over 5 minutes", "procedure": "as §1"}, "[2]": {"tested_on": "Pseudomonas aeruginosa (PA14)", "assay": "PAIN1 FRET assay with overnight grown bacterial culture", "type": "biochemical", "settings": "10 μl overnight grown culture, over one hour", "procedure": "(§2) PAIN1 was designed from a high throughput screen. The peptide was tested in the FRET format with the fluorescent dye Edans attached to one end of the peptide and the quencher Dabcyl attached to the other end of the peptide. The sequence of the PAIN1 peptide used for this assay was NH2-E(Edans) PMPPLCTSMK(Dabcyl)-COOH (SEQ ID NO: 10). Cleavage of the peptide substrate by papain will produce a fluorescent signal. The peptide was tested using 5 μl of a 5 mg/ml solution with 10 μl of overnight grown bacterial culture or with 10 μl of 120 mg/ml ACCUZYME®, a papain-containing debriding ointment (DPT Laboratories), in 100 μl total volume. The bacteria cultures tested were Pseudomonas aeruginosa (PA14), Streptococcus pyogenes (grown in BHI and TSB media), E. coli, Enterococcus faecalis, and Serratia marcesens. The relative fluorescence is shown over one hour. […] In particular, the bacteria that appear to cross-react the most with PAIN1 were Pseudomonas aeruginosa and Streptococcus pyogenes."}, "Streptococcus pyogenes": {"tested_on": "Streptococcus pyogenes", "assay": "PAIN1 FRET assay with overnight grown bacterial culture", "type": "biochemical", "settings": "10 μl overnight grown culture, over one hour", "procedure": "as §2"}, "papain": {"target": "T3, papain (Carica papaya, UniProt P00784)", "T3 construct": "purchased DPT Laboratories ACCUZYME", "T3 sequence (P00784 134-345)": "B2 chain", "assay": "PAIN1 FRET assay with papain-containing ointment ACCUZYME", "type": "biochemical", "settings": "10 μl of 120 mg/ml ACCUZYME, over one hour", "procedure": "as §2"}, "[3]": {"target": "T4, T2 (peptide sequence EVSRRRRRGGK)", "T4 chain": "EVSRRRRRGGK"}, "[4]": {"target": "T5, T3 (peptide sequence KKASEVSRRRRRGGK)", "T5 chain": "KKASEVSRRRRRGGK"}, "[5]": {"target": "T6, G6 (peptide sequence EAAHQSALQSAK)", "T6 chain": "EAAHQSALQSAK"}, "[6]": {"target": "T7, SAP2 (peptide sequence ETKVEENEAIQK)", "T7 chain": "ETKVEENEAIQK"}, "[7]": {"target": "T8, E8 (peptide sequence EQADALHDQASALK)", "T8 chain": "EQADALHDQASALK"}, "[8]": {"target": "T9, CPI2 (peptide sequence EGAMFLEAIPMSIPK)", "T9 chain": "EGAMFLEAIPMSIPK"}, "[9]": {"target": "T10, PAIN1 peptide (NH2-E(Edans) PMPPLCTSMK(Dabcyl)-COOH)", "T10 chain": "PMPPLCTSMK"}},
  "note": "Primed or numbered codes have the meaning given here. * marks the point of attachment. Dabcyl″ = label, CN(C)c1ccc(/N=N/c2ccc(C(=O)*)cc2)cc1",
  "data": [
    {"molecule": "EGAMFLEAIPMSIPK (CPI2-related peptide)", "values": [
      {"measurement": "cross-reactivity with elastase (fluorescent signal)", "setting": "[1]; 50 μg/ml of elastase, FIG. 3C", "result": "cross-reacted"},
      {"measurement": "cross-reactivity with elastase (fluorescent signal)", "setting": "[1]; Five μg/ml of elastase, FIG. 3B", "result": "small response"}
    ]},
    {"molecule": "H2N-PFPQANYITYC-OH (H-PFPQANYITYC-OH) [HE1]", "values": [
      {"measurement": "cross-reaction with bacterial proteases", "setting": "bacterial proteases", "result": "not cross react"},
      {"measurement": "HRP release signal at 405 nm", "setting": "elastase", "result": "clear signal"},
      {"measurement": "HRP release signal at 405 nm", "setting": "Pseudomonas aeruginosa", "result": "very minor increase"}
    ]},
    {"molecule": "NH2-E(Edans) PMPPLCTSMK(Dabcyl)-COOH ({E(Edans)}-PMPPLCTSMK(Dabcyl″)-OH) [PAIN1]", "values": [
      {"measurement": "relative fluorescence response", "setting": "[2]", "result": "lower but significant responses"},
      {"measurement": "relative fluorescence response", "setting": "Streptococcus pyogenes", "result": "lower but significant responses"},
      {"measurement": "relative fluorescence response", "setting": "papain", "result": "high response"}
    ]},
    {"molecule": "EQADALHDQASALK (Pseudomonas aeruginosa E8-related peptide)", "values": [
      {"measurement": "cross-reactivity with elastase (fluorescent signal)", "setting": "[1]; 50 μg/ml of elastase, FIG. 3C", "result": "cross-reacted"}
    ]},
    {"molecule": "B1", "values": [
      {"measurement": "FRET peptide cleavage (fluorescent signal), 500 ng/ml elastase", "setting": "[3]", "result": "no signal on any of the peptides when tested with 500 ng/ml of elastase"},
      {"measurement": "FRET peptide cleavage (fluorescent signal), 500 ng/ml elastase", "setting": "[4]", "result": "no signal on any of the peptides when tested with 500 ng/ml of elastase"},
      {"measurement": "FRET peptide cleavage (fluorescent signal), 500 ng/ml elastase", "setting": "[5]", "result": "no signal on any of the peptides when tested with 500 ng/ml of elastase"},
      {"measurement": "FRET peptide cleavage (fluorescent signal), 500 ng/ml elastase", "setting": "[6]", "result": "no signal on any of the peptides when tested with 500 ng/ml of elastase"},
      {"measurement": "FRET peptide cleavage (fluorescent signal), 500 ng/ml elastase", "setting": "[7]", "result": "no signal on any of the peptides when tested with 500 ng/ml of elastase"},
      {"measurement": "FRET peptide cleavage (fluorescent signal), 50 ug/ml elastase", "setting": "[7]", "result": "50 µg/ml of elastase cross-reacted with both peptides CPI2 and E8"},
      {"measurement": "FRET peptide cleavage (fluorescent signal), 500 ng/ml elastase", "setting": "[8]", "result": "no signal on any of the peptides when tested with 500 ng/ml of elastase"},
      {"measurement": "FRET peptide cleavage (fluorescent signal), 5 ug/ml elastase", "setting": "[8]", "result": "Five µg/ml of elastase cross-reacted with the broad spectrum peptide CPI2 (small response)"},
      {"measurement": "FRET peptide cleavage (fluorescent signal), 50 ug/ml elastase", "setting": "[8]", "result": "50 µg/ml of elastase cross-reacted with both peptides CPI2 and E8"}
    ]},
    {"molecule": "B2", "values": [
      {"measurement": "FRET peptide cleavage (relative fluorescence over one hour), 10 ul of 120 mg/ml ACCUZYME", "setting": "[9]", "result": "A high response was seen with papain ointment"}
    ]}
  ]
}
